The subject of data set [1] is HeLa Kyoto. The data set is described as follows: thermal stability score vs G1/S (z-score of summed log2 fold changes over temperatures); higher = more thermally stable than in G1/S.
Data set [2] has as its system HeLa Kyoto. The data set is described as follows: solubility change mitosis vs G1/S (difference of NP-40 vs SDS log2 ratios) (log2 ratio difference); higher = more soluble in mitosis.
In data set [3] the test system is HeLa Kyoto. The data set is described as follows: melting temperature (median over replicates), in situ; higher = more thermally stable.
In data set [4] the test system is HeLa Kyoto. The data set is described as follows: solubility in G1/S (NP-40 vs SDS abundance) (log2 ratio); higher = more soluble. As to conditions: cell cycle stage: G1/S.
Setting [5] is: cell cycle stage: early G1 (4.5 h after nocodazole release).
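For melting temperature (median over replicates), in situ in this document: HeLa Kyoto cells synchronized by double thymidine or nocodazole block, proteins quantified by TMT10plex mass spectrometry, three independent biological replicates.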
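For solubility change mitosis vs G1/S (difference of NP-40 vs SDS log2 ratios) in this document: synchronized HeLa Kyoto cells (double thymidine block for G1/S, nocodazole release for mitosis), protein amounts in NP-40 versus SDS lysates quantified by mass spectrometry, three biological replicates.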
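For solubility in G1/S (NP-40 vs SDS abundance) in this document: HeLa Kyoto cells arrested at G1/S by double thymidine block, proteins quantified by TMT10plex mass spectrometry in mild NP-40 versus SDS extracts, three biological replicates.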
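For thermal stability score vs G1/S (z-score of summed log2 fold changes over temperatures) in this document: synchronized HeLa Kyoto cells, proteins quantified by TMT10plex mass spectrometry, three biological replicates, mitosis taken 0.5 h after nocodazole release, G1/S directly after double thymidine block.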

As to “MEEHSYIQKELDLQNGSLEEDSVVHSVENDSQNMMESLSPKKYSSSLRFKANGDYSGSYLTLSQPVPAKRSPSPLGTSVRSSPSLAKIQGSKQFSYDGTDKNIPMKPPTPLLNTTSSLSGYPLGRADFDHYTGRDSERALRLSEKPPYSKYSSRHKSHDNVYSLGGLEGRKASGSLLAMWNGSSLSDAGPPPISRSGAASMPSSPKQARKMSIQDSLALQPKLTRHKELASENINLRTRKYSSSSLSHMGAYSRSLPRLYRATENQLTPLSLPPRNSLGNSKRTKLGEKDLPHSVIDNDNYLNFSSLSSGALPYKTSASEGNPYVSSTLSVPASPRVARKMLLASTSSCASDDFDQASYVGTNPSHSLLAGESDRVFATRRNFSCGSVEFDEADLESLRQASGTPQPALRERKSSISSISGRDDLMDYHRRQREERLREQEMERLERQRLETILSLCAEYTKPDSRLSTGTTVEDVQKINKELEKLQLSDEESVFEEALMSPDTRYRCHRKDSLPDADLASCGSLSQSSASFFTPRSTRNDELLSDLTRTPPPPSSTFPKASSESSYLSILPKTPEGISEEQRSQELAAMEETRIVILNNLEELKQKIKDINDQMDESFRELDMECALLDGEQKSETTELMKEKEILDHLNRKIAELEKNIVGEKTKEKVKLDAEREKLERLQELYSEQKTQLDNCPESMREQLQQQLKRDADLLDVESKHFEDLEFQQLEHESRLDEEKENLTQQLLREVAEYQRNIVSRKEKISALKKQANHIVQQAQREQDHFVKEKNNLIMMLQREKENLCNLEKKYSSLSGGKGFPVNPNTLKEGYISVNEINEPCGNSTNLSPSTQFPADADAVATEPATAVLASQPQSKEHFRSLEERKKQHKEGLYLSDTLPRKKTTSSISPHFSSATMGRSITPKAHLPLGQSNSCGSVLPPSLAAMAKDSESRRMLRGYNHQQMSEGHRQKSEFYNRTASESNVYLNSFHYPDHSYKDQAFDTLSLDSSDSMETSISACSPDNISSASTSNIARIEEMERLLKQAHAEKTRLLESREREMEAKKRALEEEKRRREILEKRLQEETSQRQKLIEKEVKIRERQRAQARPLTRYLPVRKEDFDLRSHVETAGHNIDTCYHVSITEKTCRGFLIKMGGKIKTWKKRWFVFDRNKRTFSYYADKHETKLKGVIYFQAIEEVYYDHLKNANKSPNPLLTFSVKTHDRIYYMVAPSPEAMRIWMDVIVTGAEGYTHFLL [PHLDB2]”, the thermal stability score in data set [1] (setting [5]) was -0.165; in data set [1] (cell cycle stage: mitosis) it was 1.44. Moreover, the “solubility change mitosis (log2)” value in data set [2] came to 0.164. Besides, the melting temperature in data set [3] (cell cycle stage: G1/S) came out at 48.9 °C; in data set [3] (cell cycle stage: mitosis), 49.1 °C. The “solubility in G1/S (log2)” value in data set [4] is -0.28.

Take “MEELSADEIRRRRLARLAGGQTSQPTTPLTSPQRENPPGPPIAASAPGPSQSLGLNVHNMTPATSPIGASGVAHRSQSSEGVSSLSSSPSNSLETQSQSLSRSQSMDIDGVSCEKSMSQVDVDSGIENMEVDENDRREKRSLSDKEPSSGPEVSEEQALQLVCKIFRVSWKDRDRDVIFLSSLSAQFKQNPKEVFSDFKDLIGQILMEVLMMSTQTRDENPFASLTATSQPIAAAARSPDRNLLLNTGSNPGTSPMFCSVASFGASSLSSLYESSPAPTPSFWSSVPVMGPSLASPSRAASQLAVPSTPLSPHSAASGTAAGSQPSSPRYRPYTVTHPWASSGVSILSSSPSPPALASSPQAVPASSSRQRPSSTGPPLPPASPSATSRRPSSLRISPSLGASGGASNWDSYSDHFTIETCKETDMLNYLIECFDRVGIEEKKAPKMCSQPAVSQLLSNIRSQCISHTALVLQGSLTQPRSLQQPSFLVPYMLCRNLPYGFIQELVRTTHQDEEVFKQIFIPILQGLALAAKECSLDSDYFKYPLMALGELCETKFGKTHPVCNLVASLRLWLPKSLSPGCGRELQRLSYLGAFFSFSVFAEDDVKVVEKYFSGPAITLENTRVVSQSLQHYLELGRQELFKILHSILLNGETREAALSYMAAVVNANMKKAQMQTDDRLVSTDGFMLNFLWVLQQLSTKIKLETVDPTYIFHPRCRITLPNDETRVNATMEDVNDWLTELYGDQPPFSEPKFPTECFFLTLHAHHLSILPSCRRYIRRLRAIRELNRTVEDLKNNESQWKDSPLATRHREMLKRCKTQLKKLVRCKACADAGLLDESFLRRCLNFYGLLIQLLLRILDPAYPDITLPLNSDVPKVFAALPEFYVEDVAEFLFFIVQYSPQALYEPCTQDIVMFLVVMLCNQNYIRNPYLVAKLVEVMFMTNPAVQPRTQKFFEMIENHPLSTKLLVPSLMKFYTDVEHTGATSEFYDKFTIRYHISTIFKSLWQNIAHHGTFMEEFNSGKQFVRYINMLINDTTFLLDESLESLKRIHEVQEEMKNKEQWDQLPRDQQQARQSQLAQDERVSRSYLALATETVDMFHILTKQVQKPFLRPELGPRLAAMLNFNLQQLCGPKCRDLKVENPEKYGFEPKKLLDQLTDIYLQLDCARFAKAIADDQRSYSKELFEEVISKMRKAGIKSTIAIEKFKLLAEKVEEIVAKNARAEIDYSDAPDEFRDPLMDTLMTDPVRLPSGTIMDRSIILRHLLNSPTDPFNRQTLTESMLEPVPELKEQIQAWMREKQNSDH [UBE4B]”: the thermal stability score came out at 1.2 in data set [1] (setting [5]) and 2.15 in data set [1] (cell cycle stage: mitosis). The “solubility change mitosis (log2)” value in data set [2] was -0.0982. Besides, the values for the melting temperature in data set [3] (cell cycle stage: G1/S) and in data set [3] (cell cycle stage: mitosis) were 51.3 °C and 51.8 °C, respectively. In addition, the “solubility in G1/S (log2)” value in data set [4] was -0.0721.

Turning to “MEESGYESVLCVKPDVHVYRIPPRATNRGYRAAEWQLDQPSWSGRLRITAKGQMAYIKLEDRTSGELFAQAPVDQFPGTAVESVTDSSRYFVIRIEDGNGRRAFIGIGFGDRGDAFDFNVALQDHFKWVKQQCEFAKQAQNPDQGPKLDLGFKEGQTIKLNIANMKKKEGAAGNPRVRPASTGGLSLLPPPPGGKTSTLIPPPGEQLAVGGSLVQPAVAPSSGGAPVPWPQPNPATADIWGDFTKSTGSTSSQTQPGTGWVQF [NECAP2]”, the thermal stability score was -0.264 in data set [1] (setting [5]) and -1.02 in data set [1] (cell cycle stage: mitosis). For the same sequence, in data set [2], the “solubility change mitosis (log2)” value is -0.251. The melting temperature was 52.6 °C in data set [3] (cell cycle stage: G1/S) and 52 °C in data set [3] (cell cycle stage: mitosis). Moreover, in data set [4], the “solubility in G1/S (log2)” value was 0.173.

Source of the values: the supplement of paper PMC5998384.
